Test results from patent US20220119521A1 (Pfizer, published 2022).
Positions count from the first letter of the chain named.

B1: anti-MAdCAM monoclonal antibody 6.22.2 (antibody, human IgG4, kappa, V domains shown)
VH: QVQLVESGGGVVQPGRSLRLSCAASGHTFSSDGMHWVRQAPGKGLEWVAIIWYDGSNKYYADSVKGRFTISRDNSKNTLYLQMNSLRAEDTAVYYCARDPGYYYGMDVWGQGTTVTVSS
VL: EIVLTQSPDFQSVTPKEKVTITCRASQRIGSSLHWYQQKPDQSPKLLIKYASQSFSGVPSRFSGSGSGTNFTLTINGLEAEDAATYYCHQSGRLPLTFGGGTKVEIKR
B2: anti-MAdCAM monoclonal antibody 6.67.1 (antibody, human IgG4, kappa, V domains shown)
VH: QVQLQESGPGLVKPSETLSLTCTVSGDSISSNYWSWIRQPAGKGLEWIGRIYTSGGTNSNPSLRGRVTILADTSKNQFSLKLSSVTAADTAVYYCARDRITIIRGLIPSFFDYWGQGTLVTVSS
VL: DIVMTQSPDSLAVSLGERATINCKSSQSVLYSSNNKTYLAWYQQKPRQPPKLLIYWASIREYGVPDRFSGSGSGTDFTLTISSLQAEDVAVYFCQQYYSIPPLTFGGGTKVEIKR
B3: anti-MAdCAM monoclonal antibody 7.20.5 (antibody, human IgG2, kappa, V domains shown)
VH: QVQLQESGPGLVKPSETLSLTCTVSGSSISSYHWNWIRQPAGKGLEWIGRIYTSGSTNYNPSLKSRVTMSLDTSKNQFSLKLSSVTAADTAVYYCAREGVRYYYASGSYYYGLDVWGQGTTVTVSS
VL: not shown
B4: anti-MAdCAM monoclonal antibody 7.26.4 (antibody, human IgG2, kappa, V domains shown)
VH: QVQLVQSGAEVKKPGASVKVSCEASGYTFTSYGIDWVRQAPGQGLEWMGWISVYSGNTNYAQKLQGRVTMSTDTSTSTAYMELRSLRSDDTAVYYCAREGSSSSGDYYYGMDVWGQGTTVTVSS
VL: DIVMTQTPLSLSVTPGQPASISCKSNQSLLYSDGKTYLFWYLQKPGQPPQLLIYEVSNRFSGVPDRFSGSGSGTDFTLKISRVEAEDVGVYYCMQSIQLPWTFGQGTKVEIKR
B5: anti-MAdCAM monoclonal antibody 6.77.1 (antibody, human IgG4, kappa, V domains shown)
VH: EVQLVESGGGLVKPGGSLRLSCAASGFTFSSYSMNWVRQAPGKGLEWVSSISSSSSYIYYADSVKGRFTISRDNAKNSLYLQMNSLRAEDTAVYYCARDGYSSGWSYYYYYGMDVWGQGTTVTVSS
VL: B4 VL with K24N, N26S, Y31L, F39N, Y92S, P100M, W101C, T102S, V109L
B6: anti-MAdCAM monoclonal antibody 9.8.2 (antibody, human IgG4, kappa, V domains shown)
VH: QVQLVESGGGVVQPGRSLRLSCAASGFTFSSYGMHWVRQAPGKGLEWVAVIWYDGSNEYYADSVKGRFTISRDNSKNTLYLQMNSLRAEDTAVYYCARGAYHFAYWGQGTLVTVSS
VL: DIQMTQSPSSLSASVGDRVTITCQASQDISNYLNWYQQKPGKAPKLLIYDASNLETGVPSRFSGSGSGTDFTFTISSLQPEDIATYSCQHSDNLSITFGQGTRLEIKR
B7: anti-MAdCAM monoclonal antibody 6.14.2 (antibody, human IgG4, kappa, V domains shown)
VH: EVQLLESGGGLVQPGGSLRLSCAASGLTFNNSAMTWVRQAPGKGLEWVSTTSGSGGTTYYADSVKGRFTISRDSPKNTLYLQMNSLRAEDTAVYYCAARGYSYGTTPYEYWGQGTLVTVSS
VL: DIQMTQSPSSLSASVGDRVTITCRASRSISSYLNWYQQKPGKAPKVLIFFVSSLQSGVPSRFSGSGSGTDFTLTISSLQPEDFATYYCQQNYIPPITFGQGTRLEIRR
B8: anti-MAdCAM monoclonal antibody 6.34.2 (antibody, human IgG4, kappa, V domains shown)
VH: QVQLVESGGGVVQPGRSLRLSCAASGFTFSSYGMHWVRQAPGKGLEWVAVISNDGNNKYYADSVKGRFTISRDNSKNTLYLQMNSLSAEDTAVYYCARDSTAITYYYYGMDVWGQGTTVTVSS
VL: DIQMTQSPSSLSASVGDRVTITCRASQNISSYLNWFQQKPGKAPKLLIYAASGLKRGVPSRFSGSGSGTDFTLTIRTLQPDDFATYSCHQSYSLPFTFGPGTKVDIKR
B9: anti-MAdCAM monoclonal antibody 1.7.2 (antibody, human IgG2, kappa, V domains shown)
VH: EVQLVESGGGLVKPGGSLRLSCVASGFTFTNAWMIWVRQAPGKGLEWVGRIKRKTDGGTTDYAAPVKGRFTISRDDSKNTLYLQMNSLKTEDTAVYYCTTGGVAEDYWGQGTLVTVSS
VL: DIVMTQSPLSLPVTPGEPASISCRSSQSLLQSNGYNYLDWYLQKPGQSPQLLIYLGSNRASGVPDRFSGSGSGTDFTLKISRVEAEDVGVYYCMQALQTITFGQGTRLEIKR
B10: anti-MAdCAM monoclonal antibody 1.8.2 (antibody, human IgG2, kappa, V domains shown)
VH: B9 VH with A24V
VL: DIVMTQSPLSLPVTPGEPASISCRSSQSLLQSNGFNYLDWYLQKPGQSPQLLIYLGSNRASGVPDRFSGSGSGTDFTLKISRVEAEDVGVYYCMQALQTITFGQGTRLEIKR

target: T1, chimeric cynomolgus/human MAdCAM (cynomolgus; human, UniProt Q13477 226-382, limits assumed); experiment: cell-based or functional assay
T1 sequence: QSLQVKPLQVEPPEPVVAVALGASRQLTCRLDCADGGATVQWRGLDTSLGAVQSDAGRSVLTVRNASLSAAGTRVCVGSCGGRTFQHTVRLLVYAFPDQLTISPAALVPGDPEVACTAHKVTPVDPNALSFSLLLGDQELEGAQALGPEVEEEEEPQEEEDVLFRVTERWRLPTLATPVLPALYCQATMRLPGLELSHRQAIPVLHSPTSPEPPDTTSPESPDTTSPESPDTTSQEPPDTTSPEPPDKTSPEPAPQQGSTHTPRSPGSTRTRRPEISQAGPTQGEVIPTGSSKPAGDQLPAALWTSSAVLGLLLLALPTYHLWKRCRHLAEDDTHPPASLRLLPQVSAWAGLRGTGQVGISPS

| Binder | Functional IC50 (µg/mL), cynomolgus/human MAdCAM-CHO/JY adhesion assay [µg/mL] |
| --- | --- |
| B1 | 0.83 |
| B2 | 0.75 |
| B3 | 0.62 |
| B4 | 0.96 |
| B5 | 0.64 |
| B6 | 0.83 |
| B7 | 0.53 |
| B8 | 0.47 |

target: MAdCAM-IgG1 Fc fusion protein (human); experiment: cell-based or functional assay

| Binder | Mean IC50, α4β7+ JY cell adhesion to coated MAdCAM IgG1 Fc fusion [µg/mL] |
| --- | --- |
| B9 | 0.03 |
| B10 | 0.027 |
| B3 | 0.025 |
| B4 | 0.021 |
